B1: Ras GTPase-activating protein 1, residues 281 to 341; numbered along this chain, P20936 (parent)
chain: RRRVRAILPYTKVPDTDEISFLKGDMFIVHNELEDGWMWVTNLRTDEQGLIVEDLVEEVGR

Consider 44 variants from the Human Domainome abundance scans (Beltran et al. 2025).

± gives the uncertainty stated by the source.

The data set covers variants of B1. Briefly: abundance fitness (aPCA) (normalised: wild type 0, dead -1); higher = more abundant; growth selection in yeast, the domain comes from the species named. Conditions: Homo sapiens.
RRRVRAILPYTKVPDTDEISFLKGDMFIVHNELEDGWMWVVNLRTDEQGLIVEDLVEEVGR [T41V]: the abundance fitness was -0.289 ± 0.028.
In the case of RRRVRAILPYTKVPDTDEISFLKGDMFIVHNELEDGWMWVTNLRTDEQGVIVEDLVEEVGR [L50V], the abundance fitness is -0.043 ± 0.024.
On to RRIVRAILPYTKVPDTDEISFLKGDMFIVHNELEDGWMWVTNLRTDEQGLIVEDLVEEVGR [R3I], for which the abundance fitness was -0.073 ± 0.031.
As for RRRVRAILPYTKVPDTDEISFLKGDMFIVCNELEDGWMWVTNLRTDEQGLIVEDLVEEVGR [H30C], the abundance fitness was -0.362 ± 0.028.
In the case of RRRVRAILPYTKVPDTDEISFLKGDMFIVPNELEDGWMWVTNLRTDEQGLIVEDLVEEVGR [H30P] it was -0.789 ± 0.061; in that of RRRVRAILPYTKVPDTDEIWFLKGDMFIVHNELEDGWMWVTNLRTDEQGLIVEDLVEEVGR [S20W], -0.511 ± 0.1.
On to RRRVRAILPYTKVPDTDFISFLKGDMFIVHNELEDGWMWVTNLRTDEQGLIVEDLVEEVGR [E18F], for which the abundance fitness was -0.498 ± 0.036.
In the case of RRRVRAILPYTKVPDTDEISFLKGDMFIVHNELEDGWMWVTNLRTDEQALIVEDLVEEVGR [G49A] it was -0.926 ± 0.065; in that of RRRVRAILPYTKVPDTDEISFLKGDMFIVHNELESGWMWVTNLRTDEQGLIVEDLVEEVGR [D35S], -0.103 ± 0.026.
For RRRVRAILPYTKVPDTDEISFLKTDMFIVHNELEDGWMWVTNLRTDEQGLIVEDLVEEVGR [G24T] the value was -0.881 ± 0.066; for RRRVRAILPYTKVPDTDEISFLKSDMFIVHNELEDGWMWVTNLRTDEQGLIVEDLVEEVGR [G24S], -0.362 ± 0.027; for RRRVRAILPYTKVPDTDEISFLKGDMFIVHNELEDGWMWVTNLTTDEQGLIVEDLVEEVGR [R44T], -0.319 ± 0.036.
As to RRRVRAILPYTKVPDTDEISFLKGDMFIRHNELEDGWMWVTNLRTDEQGLIVEDLVEEVGR [V29R], the abundance fitness was -0.636 ± 0.045.
In the case of RRRVRAILPYTKVPDTDEISFLKGDMFIGHNELEDGWMWVTNLRTDEQGLIVEDLVEEVGR [V29G] it was -0.861 ± 0.039; in that of RRRVRAILPYTKVPDTDEISFLKGDMFITHNELEDGWMWVTNLRTDEQGLIVEDLVEEVGR [V29T], -0.879 ± 0.059.
For RRRVRVILPYTKVPDTDEISFLKGDMFIVHNELEDGWMWVTNLRTDEQGLIVEDLVEEVGR [A6V] the value was -0.899 ± 0.028.
For RRRVRFILPYTKVPDTDEISFLKGDMFIVHNELEDGWMWVTNLRTDEQGLIVEDLVEEVGR [A6F], the abundance fitness was -0.919 ± 0.03.
For RRRVRAILPNTKVPDTDEISFLKGDMFIVHNELEDGWMWVTNLRTDEQGLIVEDLVEEVGR [Y10N] the value was -0.35 ± 0.048.
With RRRVRATLPYTKVPDTDEISFLKGDMFIVHNELEDGWMWVTNLRTDEQGLIVEDLVEEVGR [I7T], the abundance fitness is -0.088 ± 0.047.
For RRRVRAILLYTKVPDTDEISFLKGDMFIVHNELEDGWMWVTNLRTDEQGLIVEDLVEEVGR [P9L], the abundance fitness was -0.772 ± 0.048.
For RRRVRAILEYTKVPDTDEISFLKGDMFIVHNELEDGWMWVTNLRTDEQGLIVEDLVEEVGR [P9E] the value was -0.103 ± 0.069; for RRRVRAILPYTKVPDTDEISFLKGDMFIVHNELEDGWMWVTNSRTDEQGLIVEDLVEEVGR [L43S], -0.19 ± 0.027.
As to RRRVRAILPYTKVPDTDEISFLKGDMFIVHNELEDGWMWVTNLRTDEQGLIVEDLGEEVGR [V56G], the abundance fitness is -0.85 ± 0.046.
For the variant RRRVRAILPYTKVPDTDEISFLKGDMFIVHNELEDGWMWVTNLRTDEQGLIVEDLVEEVFR [G60F], the abundance fitness is -0.211 ± 0.07.
For RRRVRAILPYTKVPDTDEISFLKGDSFIVHNELEDGWMWVTNLRTDEQGLIVEDLVEEVGR [M26S] the value was -0.125 ± 0.028; for RRRVRAILPYTKVPDTDEISFLKGDTFIVHNELEDGWMWVTNLRTDEQGLIVEDLVEEVGR [M26T], -0.03 ± 0.038.
As to RRRVRAILPYTKVPDTDEISFLKGDYFIVHNELEDGWMWVTNLRTDEQGLIVEDLVEEVGR [M26Y], the abundance fitness is -0.028 ± 0.029.
In the case of RRRVRAILPYTKKPDTDEISFLKGDMFIVHNELEDGWMWVTNLRTDEQGLIVEDLVEEVGR [V13K] it was 0.02 ± 0.072; in that of RRRVRAILPYTKEPDTDEISFLKGDMFIVHNELEDGWMWVTNLRTDEQGLIVEDLVEEVGR [V13E], 0.019 ± 0.047; in that of RRRVRAILPYTKPPDTDEISFLKGDMFIVHNELEDGWMWVTNLRTDEQGLIVEDLVEEVGR [V13P], -0.34 ± 0.042.
For RRRVRAILPYTKIPDTDEISFLKGDMFIVHNELEDGWMWVTNLRTDEQGLIVEDLVEEVGR [V13I] the value was -0.019 ± 0.029; for RRRWRAILPYTKVPDTDEISFLKGDMFIVHNELEDGWMWVTNLRTDEQGLIVEDLVEEVGR [V4W], -0.597 ± 0.038.
For RRRQRAILPYTKVPDTDEISFLKGDMFIVHNELEDGWMWVTNLRTDEQGLIVEDLVEEVGR [V4Q] the value was -0.848 ± 0.062; for RRRSRAILPYTKVPDTDEISFLKGDMFIVHNELEDGWMWVTNLRTDEQGLIVEDLVEEVGR [V4S], -0.895 ± 0.027.
Take RGRVRAILPYTKVPDTDEISFLKGDMFIVHNELEDGWMWVTNLRTDEQGLIVEDLVEEVGR [R2G]: the abundance fitness is -0.241 ± 0.028.
In the case of RRRVRAILPYTKVPDTDEQSFLKGDMFIVHNELEDGWMWVTNLRTDEQGLIVEDLVEEVGR [I19Q] it was -1.16 ± 0.23.
In the case of RRRVRAILPYTKVPDTDEPSFLKGDMFIVHNELEDGWMWVTNLRTDEQGLIVEDLVEEVGR [I19P] it was -0.989 ± 0.11; in that of RRRVRAILPYTKVPDTDEISFLKGDMFIVHNELEDGWMWNTNLRTDEQGLIVEDLVEEVGR [V40N], -0.987 ± 0.061.
As for RRRVRAILPYTKVPDTDEISFLKGDMFIVHNELEDGWMWWTNLRTDEQGLIVEDLVEEVGR [V40W], the abundance fitness was -0.917 ± 0.14.
In the case of RRRVRAILPYTKVPDTDEISFLKGDMFIVHNELEDGWMWETNLRTDEQGLIVEDLVEEVGR [V40E] it was -1.13 ± 0.24.
In the case of RRRVRAILPYTKVPDTDEISFLKGDMFIVHNELEDGWMWVTNLRTDEQGLIVQDLVEEVGR [E53Q] it was -0.034 ± 0.074.
In the case of RRRVRAILPYTKVPDTDEISFLKGDMFIVHNELEDGWMWVTNLRTDVQGLIVEDLVEEVGR [E47V], the abundance fitness was -0.375 ± 0.027.
In the case of RRRVLAILPYTKVPDTDEISFLKGDMFIVHNELEDGWMWVTNLRTDEQGLIVEDLVEEVGR [R5L] it was -0.256 ± 0.031.
In the case of RRRVCAILPYTKVPDTDEISFLKGDMFIVHNELEDGWMWVTNLRTDEQGLIVEDLVEEVGR [R5C] it was -0.072 ± 0.03.
